Reference: a protein production outcome set (Wang et al. 2014)

Assay: label from the status in PepcDB records
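Also: failed if final PepcDB status was selected cloned or expressed and not failed if soluble or beyond.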

Question: For “MSGHDHGDDGVNRRKVLECMTWAGTGVLWTITGGVPRSLGIIDSAQAATAAAPGMTFLQISDSHVGFDKPANPNALGTLEEAINKINAMPAKPSFMIHTGDITHLSKAAEFDNAERIISQTKLDVHYVPGEHDFIDEEVKLYRERYGRGTKGHGWYSFDAGGVHFVGLVNVVDLKAGGLGNLGAEQLAWLEDDLRGKSKSTPVVLFAHIPLWTVYPEWGWGTEDGGRALEYVKGFGSVTVLNGHIHQVMQKVEGNVTFHTARSTAFPQPAPGAAPSPGPMKVEDARLRSMLGVASINFKQNEQRLAIIDTPLQG”, which protein production is on record?
Answer: failed

Question: For “MVSANREMAVYCFDTLVSHYNNEETPPPAFEEANHPLFVTWKKIVNGGEPRLRGCIGTLEARRLISGFKDYALTSALRDRRFPPIQAKELPSLQCTVSVLTDYEDAEDYLDWEVGKHGIIIEFTEPETNTKRSATYLPEVPAHEGWTKIEAIDSLVRKAGYNGVITEAVRRRINLTRYQSTLFSMHYSEYLSYVKATRGVVGPVINGINKHAFA”, which protein production is on record?
Answer: failed

Question: For “MVSLIAKIHRRRAYLTVIAIMTFIVRLIPSRNFTLAGNDAYIHHDIVMRIAREGLGIIGHDIPSLMGLKAYAYPPLFHVMGYGLYLLFRSELVFFFISPLLGTATVLVIYKVARETFEREEVALLSAFLFSMVPSFVARTSVFIPESMGLLLTSGILYMLVKYLKTTPGYPDIDKFELKAFSNLFRGDLRYILGGLALFVIYLFTHRGWVFLLIALLLLAVTFLTPSFRKRPLEFGLIFLLIGAGIIEFITFAARFQSVPVTILGFPKWMGVLQLILGIYGASLLLRSKNPIHRFLIIWATAFMIIGTYSFRFRDPYAAIPLSLMGGYAFSEVKGRLYASKRFKSYSIMKRDVKPFLRTGIFALLVLMPLAQGAAIAYTGVTTPSPQQNAAFRWINDNTPQDAVFLSAIEDSYSLIGNTHRRDVLLWKTVYEGFMGSAPSLKENTMTRDEVSAIFQSSIPSETSYLLERNNISYIYISKSMHMKGIGLQLPVDPHFKTCFVSGDVSVYRYIKNPGIQSNYSSITVNGEDGKVVEFIEKFWNGYSQGTEPSHQGVSTL”, which protein production is on record?
Answer: failed

Question: Which protein production does the source give for “MKNILKVFNTTILALIIIIATFSNSANAADSGTLNYEVYKYNTNDTSIANDYFNKPAKYIKKNGKLYVQITVNHSHWITGMSIEGHKENIISKNTAKDERTSEFEVSKLNGKIDGKIDVYIDEKVNGKPFKYDHHYNITYKFNGPTDVAGANAP” here?
Answer: not failed

Question: For “MVKVSIICTNYNKGSWIGEAIDSFLKQETSFPYEIIIVDDASTDHSVHIIKTYQKQYPDLIRAFFNQENQGITKTWSDICKKARGQYIARCDGDDYWIDPFKLQKQIDLLETSPESKWSNTDFDMVDSKGNIIHKDVLKNNIIPFMDSYEKMLALKGMTMASTWLVETKLMLEINDRINKDAVDDTFNIQLELFKKTKLAFLRDSTTVYRMDAESDSRSKDSEKLAQRFDRLLETQLEYIEKYPDSDYKKVLEYLLPKHNDFEKVLAQDGKNVWDNQQITIYLAKGDDQEFSEENCFQFPLQHSGNIQLTFPENIRKIRIDLSEIPSYYRQVSLVNTTVNTELLPTWTNAKVFGYSYYFIAPDPQMIYDLTAQEGQDFKLTYEWFNVDRPSQPDFLANHLVKELDQKKVELKMLSPYKYQYQKAVAERDLYLEQLNEMVVRYNSVTHSRRWTIPTKIINLFRRKK”, which protein production is on record?
Answer: failed

Question: For “MADWVTGKVTKVQNWTDALFSLTVHAPINPFTAGQFTKLGLEIDGERVQRAYSYVNAPDNPNLEFYLVTVPQGKLSPRLAALKPGDEVQVVSDASGFFVLDEVPDCETLWMLATGTAIGPYLSILQYGQDVARFKNLVLVHAARFAADLSYLPLMLELQQRYEGKLRIQTVVSRENVPGSLTGRVPALIENGELEKAVGLPMDKETSHVMLCGNPQMVRDTQQLLKETRQMTKHLRRRPGHMTAEHYW”, which protein production is on record?
Answer: not failed

Question: For “TNNGKQFIHNDTMEGGKLVCREIYAMNDAASGILNPVKMYKYSYDTDQQKTVKSTYAWNIFKNTWETESRTVISRYETETSVEYSVWNKEKGSFDLSKKYIYITDNNNQLIAQYAYKMNSRTNQWILEKDALTPIYENIYATTR”, which protein production is on record?
Answer: not failed

Question: With “MTTIAILSDIHGNMTAFSAVIQDAKAHQADEYWFLGDLFLPGPGSDKLWATLHGLKPTHIVKGNWDDDLFWVLDGPVDLSQPTDVYFSRLVAYLWPHLTAENLATIRNWPLHEVFEQDGLIVSLAHNLPDKNHGHALYPDQPQLNFDQIAPDSQIDLAVYGHTHQQLLRYTSNGQVILNPGSIGQAYSPRPHLQTTTYADYALLQLNDGAITDLDLRQVPYDVSAELSLAKQQQLPYPEVYTKLRHTGATSTHNAAYLKQFEQRHDYQQEVAEFLHKYRHQHLEHHHHHH” as the sequence, how does the protein production read?
Answer: failed

Question: With “AAIRHITTGTYIARIREEYQQTEVKPELQPMKEALARMTDRAEALIAFVTEQKDQELLDFQARRLVEMTAHAVFGHLLMLAANDDDSFRQSAEVYLRYGQAEQEKIDSYVRAFRPEELTFYSRCSRPE” as the sequence, how does the protein production read?
Answer: not failed

Question: Which protein production does the source give for “MNTTEFDGISHAEGLCDKEFIGKAISYLYRYGQIYIGKKIEPYGIGSGQFPFLMRLYREDGINQESLSDYLKIDKGTTARAIQKLVDEGYVFRQRDEKDRRSYRVFLTEKGKKLEPDMKKIASEWGEILFSSFDDRQRREITNSLEIMFENGLKIM” here?
Answer: not failed

Question: With “MIKPELPSNEAERLAALRQYDVLDSPAERAFDDLTMIASTLCETQMAAVVLVDEDRQWFKSAHGAPRSEAPRDISFCAHAILRPDEVLMVDDTLLDPRFHDNPMVVGSGGVRFYAGAPLVTSQGMALGSLCVFDQAPAHLREDQREALQALSRQASQLLELRLAGRQLRQQLHEREWYEQQMAGYYAQMDALHADLVEQTRTDPLTGLPNRRAFAVALAAATEQTRAVGQPLSVALLDVDHFKTVNDVHGHDQGDAVLRELSTLLRAHMAGAGTIARYGGEEFVLLLPNANLLQARVQCEYLRQSVAAMTIALPVTVSIGVATLYPQESVEAVIKRADQALYAAKRGGRDQVVALE” as the sequence, how does the protein production read?
Answer: failed

Question: Which protein production does the source give for “MYNILLIFIAFLLVLLNAFFVSAEFGMVKLRATRIQAIKENYGLRGRILEQVHQNLDAYLSACQLGITLASLGLGWIGEPAFAELLGPLFVALGISSVHIVTISSFFIAFFLISFLHIVIGELMPKSIAIRQSELISIWTAVPLYWFYWIMYPAIWLLNTCSNFFLKLSGMDIKNEYEGFYSSEELKLILSGQHLQSELKEDEREILEHTLDLAELNVTEVMRPEDEMIIIDINEPFETIKDKILKYRYSRYPVYDSGTKEMIGVIHVKDLFADLLLQKNINTLKPYVRPVLKVSHKLPAMDLLRKFRAGMPHFALVYKHKSSLLGFVTLDNLLHILIGRIKDEFHKTHEDWVKNSDGTITTKGDCSLYSLERALDCDITLSPDEEELNTLYGLIITRHGKLPNEGEIIQFVEFDALIEKVQDSFITKIKVFPKIKN” here?
Answer: failed

Question: For “MKNAFLYFLLYYRMLTTYYEWFVIVCFPQIRKICCYNEDTKTNAMEAIMKKLIGIATAAVFGLGIFTSSANAETVVTTDVLNVRENPTTESKVVGKLLNGNKIDVQNTENGWSKITLDGKDAFVSAEFTKSIYYVTANVLNVRAEANTNSEILGTLKKDDMIETTNQVQNEWLQFEYNGKTAYVHVPFLTGTAPVIEKQEQPAPAKAQAPAQAPAAQAKQAAKPAVKAAETNTPSGGRELTVVATAYTAHPSENGGTYGGRVLTAMGHDLTANPNMKMIAVDPKVIPLGSKVWVEGYGEAIAGDTGGAIKGNRIDILLGSDSAAQKWGRKTVKVKILK”, which protein production is on record?
Answer: failed

Question: For “MNLNQLDIIVSNVPQVCADLEHILDKKADYANDGFAQFTIGSHCLMLSQNHLVPLENFQSGIIIHIEVEDVDQNYKRLNELGIKVLHGPTVTDWGTESLLVQGPAGLVLDFYRMK”, which protein production is on record?
Answer: not failed

Question: Which protein production does the source give for “MELYQDNKLNNVGNIEINQCDGVIKKENDLHVSVIKPITKKIIHCDNMENKMKINAFYKPVELVEEIKNYVHKGDTHLVKLYEDFKNKKDKKVKMKNEYMTKLKNLHILNMINNKKKENECGVVNKNNIVHFNLFNENEDVTPKIETVYIPKLEKNIEVVSHLKENVNVDYTYMVPKPVVIPIEVPILKFRDHFKIIPIRKKIIPVIKYTDNIIYVDCCVEKPYIVYENVIIPVPCDIPIEQKKYIDKVPPI” here?
Answer: failed

Question: Which protein production does the source give for “EIESRELADIPVLHAYPVGQKDTPLPCVIFYHGFTSSSLVYSYFAVALAQAGLRVIMPDAPDHGSRFSGDAARRLNQFWQILLQSMQEFTTLRAAIAEENWLRDDRLAVGGASMGAMTALGITARHPTIKCTASMMGSGYFTSLARSLFPPLIPETAAQQNEFNNIVAPLAEWEATNHLEQLGDRPLLLWHGLDDDVVPADESLRLQQALSETGRDKLLTCSWQPGVRHRITPEALDAAVTFFLQHL” here?
Answer: failed
